Patent publication US20200270362A1 (HARPOON THERAPEUTICS, published 2020)

Molecular target: T1, TriTAC 75
T1 construct: Single-chain MSLN/albumin/CD3 trispecific protein, 6xHis
Experiment: Affinity measurement, method not stated; row 'Kd huCD3E' (faint print)

T1 sequence (chain, as listed by the source): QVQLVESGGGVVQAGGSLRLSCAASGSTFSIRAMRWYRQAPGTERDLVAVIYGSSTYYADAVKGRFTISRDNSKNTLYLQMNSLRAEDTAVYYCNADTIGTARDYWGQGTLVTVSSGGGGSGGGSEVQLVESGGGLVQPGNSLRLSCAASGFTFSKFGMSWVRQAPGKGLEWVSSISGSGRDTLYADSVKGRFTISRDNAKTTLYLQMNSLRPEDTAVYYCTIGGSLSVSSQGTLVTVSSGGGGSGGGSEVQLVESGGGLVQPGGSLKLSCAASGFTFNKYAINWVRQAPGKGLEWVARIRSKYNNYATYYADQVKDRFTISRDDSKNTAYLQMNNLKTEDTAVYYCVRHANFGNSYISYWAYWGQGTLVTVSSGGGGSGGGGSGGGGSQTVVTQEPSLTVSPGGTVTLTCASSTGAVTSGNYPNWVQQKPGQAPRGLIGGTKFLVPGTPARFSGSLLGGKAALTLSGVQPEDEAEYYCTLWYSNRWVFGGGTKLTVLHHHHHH

Kd: 10 nM
B1: human CD3ε (receptor, UniProt P07766 23-126, looked up)
chain: DGNEEMGGITQTPYKVSISGTTVILTCPQYPGSEILWQHNDKNIGGDEDDKNIGSDEDHLSLKEFSELEQSGYYVCYPRGSKPEDANFYLYLRARVCENCMEMD
notes: also called human CD3c (so in the source)
